Experimental data: patent publication US20040132659A1 (UNIVERSITY OF SOUTHERN CALIFORNIA, published 2004)

Assays:
integrin αvβ3 on cells = integrin αvβ3 on cells (human, UniProt P06756 31-1048; P05106 27-788); assay: cell-based or functional assay
[1] = molecular target: integrin αvβ5 on cells (human) (UniProt P06756); assay: cell-based or functional assay
[2] = molecular target: integrin receptors on the surface of MDA-MB-435 cells; assay: cell-based or functional assay
[3] = molecular target: binding sites on human melanoma M24met cells; assay: binding of CN to human melanoma M24met cells, high affinity site
[4] = molecular target: T1, platelet membrane glycoprotein (GP)IIb/IIIa on human platelets (human, UniProt P08514 32-1039; P05106 27-788); assay: Scatchard analysis of CN binding to unactivated human platelets
T1 construct: whole, on cells; also called fibrinogen receptor; αIIbβ3

[5] = molecular target: binding sites on human melanoma M24met cells; assay: binding of CN to human melanoma M24met cells, lower affinity site
[6] = molecular target: T1, platelet membrane glycoprotein …
[7] = molecular target: integrin receptors on the surface of MDA-MB-435 cells; assay: inhibition of binding of MDA-MB-435 cells to immobilized CN (0.1 µg/well); competitor: immobilized CN

T1 sequence (P08514 32-1039, chain 1 of 2): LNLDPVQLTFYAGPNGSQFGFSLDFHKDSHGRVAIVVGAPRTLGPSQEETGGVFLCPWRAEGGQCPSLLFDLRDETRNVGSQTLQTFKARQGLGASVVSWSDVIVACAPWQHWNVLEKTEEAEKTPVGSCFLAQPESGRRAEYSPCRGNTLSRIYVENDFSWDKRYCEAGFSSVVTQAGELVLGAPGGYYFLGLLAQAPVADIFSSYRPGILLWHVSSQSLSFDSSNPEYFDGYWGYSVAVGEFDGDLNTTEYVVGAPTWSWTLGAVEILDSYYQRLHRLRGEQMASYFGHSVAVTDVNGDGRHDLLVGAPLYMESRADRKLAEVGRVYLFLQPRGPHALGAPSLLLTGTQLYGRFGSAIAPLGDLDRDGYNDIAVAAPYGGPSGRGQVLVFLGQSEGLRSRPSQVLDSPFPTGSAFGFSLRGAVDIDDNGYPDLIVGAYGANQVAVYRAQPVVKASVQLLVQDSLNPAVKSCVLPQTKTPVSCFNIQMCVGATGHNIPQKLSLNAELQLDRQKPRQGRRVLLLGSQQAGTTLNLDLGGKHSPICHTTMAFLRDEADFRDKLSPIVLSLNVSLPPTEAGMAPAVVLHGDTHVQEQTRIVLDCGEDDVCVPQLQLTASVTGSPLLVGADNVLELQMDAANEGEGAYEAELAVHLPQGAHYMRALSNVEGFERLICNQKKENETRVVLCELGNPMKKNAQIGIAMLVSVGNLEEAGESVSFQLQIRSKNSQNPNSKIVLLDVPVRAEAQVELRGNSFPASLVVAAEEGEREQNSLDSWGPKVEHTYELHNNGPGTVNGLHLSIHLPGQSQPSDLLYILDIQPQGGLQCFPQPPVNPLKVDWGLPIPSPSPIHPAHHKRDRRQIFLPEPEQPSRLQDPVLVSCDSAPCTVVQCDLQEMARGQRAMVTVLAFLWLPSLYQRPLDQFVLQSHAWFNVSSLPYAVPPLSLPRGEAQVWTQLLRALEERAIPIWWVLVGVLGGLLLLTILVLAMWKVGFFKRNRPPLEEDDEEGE
T1 sequence (P05106 27-788, chain 2 of 2): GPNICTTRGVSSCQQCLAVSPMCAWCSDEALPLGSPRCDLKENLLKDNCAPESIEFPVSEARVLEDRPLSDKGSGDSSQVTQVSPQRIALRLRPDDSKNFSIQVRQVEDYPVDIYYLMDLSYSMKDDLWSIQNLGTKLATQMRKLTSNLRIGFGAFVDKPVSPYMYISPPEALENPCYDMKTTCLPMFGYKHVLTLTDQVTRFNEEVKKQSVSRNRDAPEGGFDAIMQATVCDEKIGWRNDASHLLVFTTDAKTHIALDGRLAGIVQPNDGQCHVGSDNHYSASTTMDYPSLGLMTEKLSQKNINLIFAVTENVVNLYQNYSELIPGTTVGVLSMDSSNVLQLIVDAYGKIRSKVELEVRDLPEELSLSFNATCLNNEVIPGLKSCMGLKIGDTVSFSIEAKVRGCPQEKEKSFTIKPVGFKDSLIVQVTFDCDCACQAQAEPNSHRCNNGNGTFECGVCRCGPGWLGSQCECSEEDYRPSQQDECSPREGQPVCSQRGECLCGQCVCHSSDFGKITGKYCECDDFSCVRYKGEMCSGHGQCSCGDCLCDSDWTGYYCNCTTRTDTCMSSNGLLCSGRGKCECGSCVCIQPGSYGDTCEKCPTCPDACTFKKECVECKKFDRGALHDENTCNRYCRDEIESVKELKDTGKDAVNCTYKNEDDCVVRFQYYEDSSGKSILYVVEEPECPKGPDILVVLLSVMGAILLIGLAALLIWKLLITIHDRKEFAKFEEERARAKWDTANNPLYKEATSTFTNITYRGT
Sequence of integrin αvβ5 on cells (human) (P06756 31-1048, chain 1 of 2): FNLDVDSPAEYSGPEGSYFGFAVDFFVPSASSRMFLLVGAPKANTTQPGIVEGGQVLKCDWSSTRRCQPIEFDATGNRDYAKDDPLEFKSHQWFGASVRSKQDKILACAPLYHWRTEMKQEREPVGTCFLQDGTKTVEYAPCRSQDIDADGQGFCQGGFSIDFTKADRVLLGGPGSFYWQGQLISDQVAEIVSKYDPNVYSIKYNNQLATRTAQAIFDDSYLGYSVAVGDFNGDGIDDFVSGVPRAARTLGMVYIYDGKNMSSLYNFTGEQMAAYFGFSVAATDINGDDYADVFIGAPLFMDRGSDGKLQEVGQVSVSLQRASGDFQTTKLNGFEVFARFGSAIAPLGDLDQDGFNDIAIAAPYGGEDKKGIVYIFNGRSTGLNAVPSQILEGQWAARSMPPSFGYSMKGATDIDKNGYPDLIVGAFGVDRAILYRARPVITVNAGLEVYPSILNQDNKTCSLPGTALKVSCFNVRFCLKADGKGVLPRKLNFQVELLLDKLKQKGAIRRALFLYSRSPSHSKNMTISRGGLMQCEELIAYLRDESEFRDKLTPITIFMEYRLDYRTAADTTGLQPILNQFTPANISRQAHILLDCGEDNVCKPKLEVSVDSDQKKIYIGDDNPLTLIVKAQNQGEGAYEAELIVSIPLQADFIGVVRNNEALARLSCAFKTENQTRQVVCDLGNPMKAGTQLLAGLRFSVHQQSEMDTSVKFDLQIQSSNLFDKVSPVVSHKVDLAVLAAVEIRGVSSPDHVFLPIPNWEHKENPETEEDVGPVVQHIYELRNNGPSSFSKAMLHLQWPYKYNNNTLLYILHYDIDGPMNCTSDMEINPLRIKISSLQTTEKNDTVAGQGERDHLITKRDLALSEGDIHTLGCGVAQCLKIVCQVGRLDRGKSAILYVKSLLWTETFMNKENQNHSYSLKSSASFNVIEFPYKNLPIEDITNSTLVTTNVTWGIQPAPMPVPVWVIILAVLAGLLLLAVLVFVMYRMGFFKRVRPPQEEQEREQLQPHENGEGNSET
Sequence of integrin αvβ5 on cells (human) (P18084 24-799, chain 2 of 2, further chain): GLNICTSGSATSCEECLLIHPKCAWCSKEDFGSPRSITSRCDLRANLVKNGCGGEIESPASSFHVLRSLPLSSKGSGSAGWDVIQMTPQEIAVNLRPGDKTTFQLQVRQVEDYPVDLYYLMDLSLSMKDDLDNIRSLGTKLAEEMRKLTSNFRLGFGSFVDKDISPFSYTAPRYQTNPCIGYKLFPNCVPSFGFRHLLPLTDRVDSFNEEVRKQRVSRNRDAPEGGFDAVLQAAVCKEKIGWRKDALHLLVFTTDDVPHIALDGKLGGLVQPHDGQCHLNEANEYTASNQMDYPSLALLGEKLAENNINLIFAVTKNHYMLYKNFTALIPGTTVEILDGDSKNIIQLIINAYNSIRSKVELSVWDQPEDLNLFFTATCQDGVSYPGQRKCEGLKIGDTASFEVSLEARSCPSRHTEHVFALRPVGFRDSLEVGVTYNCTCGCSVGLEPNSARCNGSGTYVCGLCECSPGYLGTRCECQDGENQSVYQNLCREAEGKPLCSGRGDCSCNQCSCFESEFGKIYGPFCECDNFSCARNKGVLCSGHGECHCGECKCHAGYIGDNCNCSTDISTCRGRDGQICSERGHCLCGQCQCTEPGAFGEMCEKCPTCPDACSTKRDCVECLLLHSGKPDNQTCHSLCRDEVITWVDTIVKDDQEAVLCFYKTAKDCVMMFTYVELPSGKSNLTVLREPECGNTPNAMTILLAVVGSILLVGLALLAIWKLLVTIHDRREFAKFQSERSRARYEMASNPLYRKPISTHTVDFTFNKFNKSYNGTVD
Sequence of integrin αvβ3 on cells (P06756 31-1048, chain 1 of 2): as the sequence (P06756 31-1048, chain 1 of 2) above
Sequence of integrin αvβ3 on cells (P05106 27-788, chain 2 of 2): as the sequence (P05106 27-788, chain 2 of 2) above

How did the maximum inhibition of adhesion of T24 cells to immobilized vitronectin (integrin αvβ3 on cells) turn out when 7E3 murine monoclonal antibody was run?
Its maximum inhibition of adhesion of T24 cells to immobilized vitronectin is less than 40%.

For P1F6 monoclonal antibody, which inhibition of adhesion of T24-β3 neg. cells to immobilized vitronectin [1] is on record?
The inhibition of adhesion of T24-β3 neg. cells to immobilized vitronectin was 80%.

And the inhibition of adhesion of T24 cells to immobilized vitronectin [1]?
Its inhibition of adhesion of T24 cells to immobilized vitronectin is less than 40%.

B1: contortrostatin (ligand)
chain: DAPANPCCDAATCKLTTGSQCADGLCCDQCKFMKEGTVCRRARGDDLDDYCNGISAGCPRNPFHA
notes: also called CN; homodimeric disintegrin
Which results are given for B1?
IC50 for inhibition of adhesion of MDA-MB-435 cells to immobilized fibronectin [2]: 18 nM; Kd [3]: 1.1 nM; sites per cell (sites per cell) [3]: 96000; Kd [4]: 37 nM; Kd [5]: 41 nM; sites per cell (sites per cell) [5]: 480000; IC50 [6]: 25 nM; IC50 for inhibition of adhesion of MDA-MB-435 cells to immobilized vitronectin (integrin αvβ3 on cells): 1.5 nM

Which IC50 [7] does the source give for GRGDSP [RGD peptide GRGDSP] here?
The IC50 was 400 µM.
